# Reference: patent US20140087995A1 (published 2014)
# Numbered stars: 1 amine (or outer) side, 2 acyl side, 3 side chain; on linkers, the order of the positions; unused ones are H or OH. Bridge positions count the residues as written; N and C are the ends. * marks the point of attachment. C20 diacid = O=C(O)CCCCCCCCCCCCCCCCCCC(=O)*; γGlu = O=C(O)[C@H](CCC(=O)[*:2])N[*:1]
# T1: human amylin receptor (amylin 3(a) receptor: human calcitonin receptor with RAMP-3) (human, UniProt P30988 25-474; O60896 24-148)
# T1 sequence (looked up) 1: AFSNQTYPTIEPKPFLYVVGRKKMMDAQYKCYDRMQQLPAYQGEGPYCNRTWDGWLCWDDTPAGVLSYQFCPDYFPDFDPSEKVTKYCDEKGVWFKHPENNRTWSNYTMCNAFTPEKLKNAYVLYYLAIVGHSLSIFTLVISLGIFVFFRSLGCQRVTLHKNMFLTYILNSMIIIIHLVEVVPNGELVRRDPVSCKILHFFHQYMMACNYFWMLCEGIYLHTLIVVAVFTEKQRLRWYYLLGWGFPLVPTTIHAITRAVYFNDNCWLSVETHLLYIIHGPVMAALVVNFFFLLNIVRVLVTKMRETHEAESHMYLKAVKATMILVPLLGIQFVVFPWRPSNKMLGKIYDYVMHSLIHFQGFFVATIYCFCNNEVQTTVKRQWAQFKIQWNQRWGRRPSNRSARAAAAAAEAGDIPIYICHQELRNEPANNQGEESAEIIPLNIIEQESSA
# T1 sequence (looked up) 2: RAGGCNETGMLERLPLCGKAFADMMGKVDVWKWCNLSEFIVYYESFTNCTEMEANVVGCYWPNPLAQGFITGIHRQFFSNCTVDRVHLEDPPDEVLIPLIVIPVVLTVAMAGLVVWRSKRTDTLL
# T2: human calcitonin receptor (human, UniProt P30988 25-474)
# T2 sequence (looked up): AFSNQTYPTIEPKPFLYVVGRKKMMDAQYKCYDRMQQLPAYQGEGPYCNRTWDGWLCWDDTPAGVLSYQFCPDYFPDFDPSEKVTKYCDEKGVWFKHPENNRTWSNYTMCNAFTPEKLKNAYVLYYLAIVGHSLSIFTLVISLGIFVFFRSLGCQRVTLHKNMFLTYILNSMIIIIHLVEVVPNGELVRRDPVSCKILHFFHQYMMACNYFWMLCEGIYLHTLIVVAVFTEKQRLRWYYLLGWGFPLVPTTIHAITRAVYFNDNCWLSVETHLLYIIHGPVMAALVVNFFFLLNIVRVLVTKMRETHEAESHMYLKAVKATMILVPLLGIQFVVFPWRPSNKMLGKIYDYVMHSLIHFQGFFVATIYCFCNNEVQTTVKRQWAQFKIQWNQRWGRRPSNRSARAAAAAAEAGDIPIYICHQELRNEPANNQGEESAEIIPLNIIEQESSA
# How the values were obtained:
# [1] = molecular target: T1, human amylin receptor (amylin 3(a) …); assay: cell-based or functional assay
# [2] = molecular target: T2, human calcitonin receptor; assay: cell-based or functional assay
Binder,hAmylin-R funct. EC50 [1],Ratio hCT/hAmylin funct. [2],hCTR funct. EC50 [2]
"{C20 diacid-γGlu}-KCNTATCATQRLAEFLRHSSPNFGAIPSSTNVGPNTY-NH2 (disulfide 2-7; SMILES CC[C@H](C)[C@H](NC(=O)[C@H](C)NC(=O)CNC(=O)[C@H](Cc1ccccc1)NC(=O)[C@H](CC(N)=O)NC(=O)[C@@H]1CCCN1C(=O)[C@H](CO)NC(=O)[C@H](CO)NC(=O)[C@H](Cc1c[nH]cn1)NC(=O)[C@H](CCCNC(=N)N)NC(=O)[C@H](CC(C)C)NC(=O)[C@H](Cc1ccccc1)NC(=O)[C@H](CCC(=O)O)NC(=O)[C@H](C)NC(=O)[C@H](CC(C)C)NC(=O)[C@H](CCCNC(=N)N)NC(=O)[C@H](CCC(N)=O)NC(=O)[C@@H](NC(=O)[C@H](C)NC(=O)[C@@H]1CSSC[C@H](NC(=O)[C@H](CCCCN)NC(=O)CC[C@H](NC(=O)CCCCCCCCCCCCCCCCCCC(=O)O)C(=O)O)C(=O)N[C@@H](CC(N)=O)C(=O)N[C@@H]([C@@H](C)O)C(=O)N[C@@H](C)C(=O)N[C@@H]([C@@H](C)O)C(=O)N1)[C@@H](C)O)C(=O)N1CCC[C@H]1C(=O)N[C@@H](CO)C(=O)N[C@@H](CO)C(=O)N[C@H](C(=O)N[C@@H](CC(N)=O)C(=O)N[C@H](C(=O)NCC(=O)N1CCC[C@H]1C(=O)N[C@@H](CC(N)=O)C(=O)N[C@H](C(=O)N[C@@H](Cc1ccc(O)cc1)C(N)=O)[C@@H](C)O)C(C)C)[C@@H](C)O, also called compound 32)",0.05 nM,6.6,0.327 nM
"{C20 diacid-γGlu}-KCNTATCATQRLAEFLRHSSPNFGAIPSSTPVGSNTY-NH2 (disulfide 2-7; SMILES CC[C@H](C)[C@H](NC(=O)[C@H](C)NC(=O)CNC(=O)[C@H](Cc1ccccc1)NC(=O)[C@H](CC(N)=O)NC(=O)[C@@H]1CCCN1C(=O)[C@H](CO)NC(=O)[C@H](CO)NC(=O)[C@H](Cc1c[nH]cn1)NC(=O)[C@H](CCCNC(=N)N)NC(=O)[C@H](CC(C)C)NC(=O)[C@H](Cc1ccccc1)NC(=O)[C@H](CCC(=O)O)NC(=O)[C@H](C)NC(=O)[C@H](CC(C)C)NC(=O)[C@H](CCCNC(=N)N)NC(=O)[C@H](CCC(N)=O)NC(=O)[C@@H](NC(=O)[C@H](C)NC(=O)[C@@H]1CSSC[C@H](NC(=O)[C@H](CCCCN)NC(=O)CC[C@H](NC(=O)CCCCCCCCCCCCCCCCCCC(=O)O)C(=O)O)C(=O)N[C@@H](CC(N)=O)C(=O)N[C@@H]([C@@H](C)O)C(=O)N[C@@H](C)C(=O)N[C@@H]([C@@H](C)O)C(=O)N1)[C@@H](C)O)C(=O)N1CCC[C@H]1C(=O)N[C@@H](CO)C(=O)N[C@@H](CO)C(=O)N[C@H](C(=O)N1CCC[C@H]1C(=O)N[C@H](C(=O)NCC(=O)N[C@@H](CO)C(=O)N[C@@H](CC(N)=O)C(=O)N[C@H](C(=O)N[C@@H](Cc1ccc(O)cc1)C(N)=O)[C@@H](C)O)C(C)C)[C@@H](C)O, also called compound 31)",0.112 nM,6.4,0.717 nM
"{C20 diacid-γGlu}-KCNTATCATQRLAEFLRHSSPNFGAIPSPTNVGSNTY-NH2 (disulfide 2-7; SMILES CC[C@H](C)[C@H](NC(=O)[C@H](C)NC(=O)CNC(=O)[C@H](Cc1ccccc1)NC(=O)[C@H](CC(N)=O)NC(=O)[C@@H]1CCCN1C(=O)[C@H](CO)NC(=O)[C@H](CO)NC(=O)[C@H](Cc1c[nH]cn1)NC(=O)[C@H](CCCNC(=N)N)NC(=O)[C@H](CC(C)C)NC(=O)[C@H](Cc1ccccc1)NC(=O)[C@H](CCC(=O)O)NC(=O)[C@H](C)NC(=O)[C@H](CC(C)C)NC(=O)[C@H](CCCNC(=N)N)NC(=O)[C@H](CCC(N)=O)NC(=O)[C@@H](NC(=O)[C@H](C)NC(=O)[C@@H]1CSSC[C@H](NC(=O)[C@H](CCCCN)NC(=O)CC[C@H](NC(=O)CCCCCCCCCCCCCCCCCCC(=O)O)C(=O)O)C(=O)N[C@@H](CC(N)=O)C(=O)N[C@@H]([C@@H](C)O)C(=O)N[C@@H](C)C(=O)N[C@@H]([C@@H](C)O)C(=O)N1)[C@@H](C)O)C(=O)N1CCC[C@H]1C(=O)N[C@@H](CO)C(=O)N1CCC[C@H]1C(=O)N[C@H](C(=O)N[C@@H](CC(N)=O)C(=O)N[C@H](C(=O)NCC(=O)N[C@@H](CO)C(=O)N[C@@H](CC(N)=O)C(=O)N[C@H](C(=O)N[C@@H](Cc1ccc(O)cc1)C(N)=O)[C@@H](C)O)C(C)C)[C@@H](C)O, also called compound 37)",0.092 nM,4,0.372 nM

# Further lines, results first:
hAmylin-R funct. EC50 [1],Ratio hCT/hAmylin funct. [2],hCTR funct. EC50 [2],Binder
0.12 nM,0.9,0.112 nM,"{C20 diacid-γGlu}-KCNTATCATQRLAEFLRHSSPNFGAIPSSTNVGSDTP-NH2 (disulfide 2-7; SMILES CC[C@H](C)[C@H](NC(=O)[C@H](C)NC(=O)CNC(=O)[C@H](Cc1ccccc1)NC(=O)[C@H](CC(N)=O)NC(=O)[C@@H]1CCCN1C(=O)[C@H](CO)NC(=O)[C@H](CO)NC(=O)[C@H](Cc1c[nH]cn1)NC(=O)[C@H](CCCNC(=N)N)NC(=O)[C@H](CC(C)C)NC(=O)[C@H](Cc1ccccc1)NC(=O)[C@H](CCC(=O)O)NC(=O)[C@H](C)NC(=O)[C@H](CC(C)C)NC(=O)[C@H](CCCNC(=N)N)NC(=O)[C@H](CCC(N)=O)NC(=O)[C@@H](NC(=O)[C@H](C)NC(=O)[C@@H]1CSSC[C@H](NC(=O)[C@H](CCCCN)NC(=O)CC[C@H](NC(=O)CCCCCCCCCCCCCCCCCCC(=O)O)C(=O)O)C(=O)N[C@@H](CC(N)=O)C(=O)N[C@@H]([C@@H](C)O)C(=O)N[C@@H](C)C(=O)N[C@@H]([C@@H](C)O)C(=O)N1)[C@@H](C)O)C(=O)N1CCC[C@H]1C(=O)N[C@@H](CO)C(=O)N[C@@H](CO)C(=O)N[C@H](C(=O)N[C@@H](CC(N)=O)C(=O)N[C@H](C(=O)NCC(=O)N[C@@H](CO)C(=O)N[C@@H](CC(=O)O)C(=O)N[C@H](C(=O)N1CCC[C@H]1C(N)=O)[C@@H](C)O)C(C)C)[C@@H](C)O, also called compound 11)"
0.154 nM,4.8,0.742 nM,"{C20 diacid-γGlu}-KCNTATCATQRLAEFLRHSSPNFGAIPSSTNVGSHTY-NH2 (disulfide 2-7; SMILES CC[C@H](C)[C@H](NC(=O)[C@H](C)NC(=O)CNC(=O)[C@H](Cc1ccccc1)NC(=O)[C@H](CC(N)=O)NC(=O)[C@@H]1CCCN1C(=O)[C@H](CO)NC(=O)[C@H](CO)NC(=O)[C@H](Cc1c[nH]cn1)NC(=O)[C@H](CCCNC(=N)N)NC(=O)[C@H](CC(C)C)NC(=O)[C@H](Cc1ccccc1)NC(=O)[C@H](CCC(=O)O)NC(=O)[C@H](C)NC(=O)[C@H](CC(C)C)NC(=O)[C@H](CCCNC(=N)N)NC(=O)[C@H](CCC(N)=O)NC(=O)[C@@H](NC(=O)[C@H](C)NC(=O)[C@@H]1CSSC[C@H](NC(=O)[C@H](CCCCN)NC(=O)CC[C@H](NC(=O)CCCCCCCCCCCCCCCCCCC(=O)O)C(=O)O)C(=O)N[C@@H](CC(N)=O)C(=O)N[C@@H]([C@@H](C)O)C(=O)N[C@@H](C)C(=O)N[C@@H]([C@@H](C)O)C(=O)N1)[C@@H](C)O)C(=O)N1CCC[C@H]1C(=O)N[C@@H](CO)C(=O)N[C@@H](CO)C(=O)N[C@H](C(=O)N[C@@H](CC(N)=O)C(=O)N[C@H](C(=O)NCC(=O)N[C@@H](CO)C(=O)N[C@@H](Cc1c[nH]cn1)C(=O)N[C@H](C(=O)N[C@@H](Cc1ccc(O)cc1)C(N)=O)[C@@H](C)O)C(C)C)[C@@H](C)O, also called compound 18)"
0.268 nM,8.8,–,"{C20 diacid-γGlu}-KCNTATCATQRLAEFLRHSSPNFGAIPSSTNVGHNTY-NH2 (disulfide 2-7; SMILES CC[C@H](C)[C@H](NC(=O)[C@H](C)NC(=O)CNC(=O)[C@H](Cc1ccccc1)NC(=O)[C@H](CC(N)=O)NC(=O)[C@@H]1CCCN1C(=O)[C@H](CO)NC(=O)[C@H](CO)NC(=O)[C@H](Cc1c[nH]cn1)NC(=O)[C@H](CCCNC(=N)N)NC(=O)[C@H](CC(C)C)NC(=O)[C@H](Cc1ccccc1)NC(=O)[C@H](CCC(=O)O)NC(=O)[C@H](C)NC(=O)[C@H](CC(C)C)NC(=O)[C@H](CCCNC(=N)N)NC(=O)[C@H](CCC(N)=O)NC(=O)[C@@H](NC(=O)[C@H](C)NC(=O)[C@@H]1CSSC[C@H](NC(=O)[C@H](CCCCN)NC(=O)CC[C@H](NC(=O)CCCCCCCCCCCCCCCCCCC(=O)O)C(=O)O)C(=O)N[C@@H](CC(N)=O)C(=O)N[C@@H]([C@@H](C)O)C(=O)N[C@@H](C)C(=O)N[C@@H]([C@@H](C)O)C(=O)N1)[C@@H](C)O)C(=O)N1CCC[C@H]1C(=O)N[C@@H](CO)C(=O)N[C@@H](CO)C(=O)N[C@H](C(=O)N[C@@H](CC(N)=O)C(=O)N[C@H](C(=O)NCC(=O)N[C@@H](Cc1c[nH]cn1)C(=O)N[C@@H](CC(N)=O)C(=O)N[C@H](C(=O)N[C@@H](Cc1ccc(O)cc1)C(N)=O)[C@@H](C)O)C(C)C)[C@@H](C)O, also called compound 17)"
